# Results taken from PMC5503752 (Biophysical chemistry, 2017).
# Like-named read-outs stand apart in the source and are kept apart here.
# Tests used:
# Test in all cases: other fluorescence titration
# [1] = target: T1, Full-length, wild-type calmodulin (paramecium sequence) (paramecium, UniProt P07463 1-149)
# [2] = target: T2, C-domain fragment of calmodulin (CaMC, residues 76-148) (paramecium, UniProt P07463 77-149)
# [3] = target: T3, N-domain fragment of calmodulin (CaMN, residues 1-75) (paramecium, UniProt P07463 2-76)
# [4] = target: T1, Full-length, wild-type calmodulin …; remark: listed apart in the source
# [5] = target: T2, C-domain fragment of calmodulin (CaMC, …); remark: listed apart in the source
# [6] = target: T3, N-domain fragment of calmodulin (CaMN, …); remark: listed apart in the source
binder,measurement,setting,value
KRKQEEVSAIVIQRAYRRYLLKQKVKK (domain or fragment) [NaV1.2 IQ biosensor (rat NaV1.2 residues 1901-1927 flanked by YFP and CFP)],Kd,[1],3.2 nM
same,Kd,[2],11.6 nM
same,Kd,[3],> 100000 nM
same,Kd,[4],85 nM
same,Kd,[5],386 nM
same,Kd,[6],> 100000 nM
